Source: article doi:10.1101/2025.06.20.660723

Biological target: Lhcb2 of Posidonia oceanica, threonine-phosphorylated (Posidonia oceanica (endogenous in leaves))

stoichiometry N (Lhcb1 per Lhcb2): 2
Substance: Lhcb1 of Posidonia oceanica (natural protein)
